# According to patent publication US20150037356A1 (AstraZeneca / MedImmune, published 2015):
# B1: A9E8 monoclonal antibody (mouse IgG1 format) (antibody, V domains shown)
# VH: QLQLQESGPGLVKPSETLSLTCAVSGASISNWWSWVRQPPGKGLEWIGEVHHSGVTTYKPSLKSRVTISVDNSKNQLSLKLTSVTAADTAVYYCAREFADDAFDIWGRGTMVTVSS
# VL: SSELTQDPAVSVALGQTVRITCRGDSLRKYYASWYQQKPRQAPQLVIYHKNNRASGIPDRFSGSISGNTASLTITGAQAEDEAAYFCNSRDTSGNYLVFGGGTKVTVLG
# notes: VH and VL from the phage scFv were cloned into a mouse IgG1 backbone and expressed as complete mouse IgG1; also called A9E8 antibody
# Tests used:
# [1] = molecular target: T1, endogenous Siglec-15 on leukaemic cell lines (human, UniProt Q6ZMC9 20-328); assay: cell-based or functional assay
# T1 sequence (looked up): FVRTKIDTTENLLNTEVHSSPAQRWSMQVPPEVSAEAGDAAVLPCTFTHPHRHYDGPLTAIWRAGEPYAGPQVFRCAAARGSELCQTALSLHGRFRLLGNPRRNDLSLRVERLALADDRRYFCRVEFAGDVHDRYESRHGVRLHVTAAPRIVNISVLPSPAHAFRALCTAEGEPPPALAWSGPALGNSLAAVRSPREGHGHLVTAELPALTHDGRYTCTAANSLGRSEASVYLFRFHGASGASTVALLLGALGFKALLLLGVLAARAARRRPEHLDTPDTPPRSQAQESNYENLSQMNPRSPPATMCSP
# Siglec-5 on U937 cells = molecular target: T2, Siglec-5 on U937 cells (UniProt O15389 17-551, limits assumed); assay: FACS on U937 cells
# T2 construct: whole, on cells
# T2 sequence (looked up): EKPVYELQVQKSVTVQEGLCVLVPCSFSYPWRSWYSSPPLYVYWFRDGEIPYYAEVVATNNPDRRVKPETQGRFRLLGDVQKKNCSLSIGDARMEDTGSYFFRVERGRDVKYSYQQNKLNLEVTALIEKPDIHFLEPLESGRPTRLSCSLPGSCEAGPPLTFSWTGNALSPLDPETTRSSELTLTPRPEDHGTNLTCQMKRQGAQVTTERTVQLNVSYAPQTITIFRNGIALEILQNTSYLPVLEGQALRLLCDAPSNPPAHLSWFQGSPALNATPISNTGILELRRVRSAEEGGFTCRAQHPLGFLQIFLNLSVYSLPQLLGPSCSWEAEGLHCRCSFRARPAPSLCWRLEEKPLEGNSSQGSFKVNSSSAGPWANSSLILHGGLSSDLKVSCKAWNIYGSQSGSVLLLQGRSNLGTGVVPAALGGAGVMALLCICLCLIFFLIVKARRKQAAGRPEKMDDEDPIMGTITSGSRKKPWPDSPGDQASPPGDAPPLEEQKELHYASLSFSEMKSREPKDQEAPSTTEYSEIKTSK
# Siglec-9 on U937 cells = molecular target: T3, Siglec-9 on U937 cells (UniProt Q9Y336 18-463, limits assumed); assay: FACS on U937 cells
# T3 construct: whole, on cells
# T3 sequence (Q9Y336 18-463 limits assumed): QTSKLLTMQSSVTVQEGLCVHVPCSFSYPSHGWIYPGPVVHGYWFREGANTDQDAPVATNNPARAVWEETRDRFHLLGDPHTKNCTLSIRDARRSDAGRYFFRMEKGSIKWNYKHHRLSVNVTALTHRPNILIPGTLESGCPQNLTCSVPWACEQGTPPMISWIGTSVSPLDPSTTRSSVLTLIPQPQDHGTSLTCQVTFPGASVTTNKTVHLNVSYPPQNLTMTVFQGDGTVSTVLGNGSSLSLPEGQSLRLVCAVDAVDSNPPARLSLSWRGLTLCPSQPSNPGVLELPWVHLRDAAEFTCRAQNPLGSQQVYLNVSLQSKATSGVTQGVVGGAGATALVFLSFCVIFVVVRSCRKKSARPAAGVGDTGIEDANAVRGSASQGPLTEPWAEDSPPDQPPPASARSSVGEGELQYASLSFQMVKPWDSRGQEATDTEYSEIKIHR
# CD33 on U937 cells = molecular target: T4, CD33 on U937 cells (UniProt P20138 18-364, limits assumed); assay: FACS on U937 cells
# T4 construct: whole, on cells
# T4 sequence (P20138 18-364 limits assumed): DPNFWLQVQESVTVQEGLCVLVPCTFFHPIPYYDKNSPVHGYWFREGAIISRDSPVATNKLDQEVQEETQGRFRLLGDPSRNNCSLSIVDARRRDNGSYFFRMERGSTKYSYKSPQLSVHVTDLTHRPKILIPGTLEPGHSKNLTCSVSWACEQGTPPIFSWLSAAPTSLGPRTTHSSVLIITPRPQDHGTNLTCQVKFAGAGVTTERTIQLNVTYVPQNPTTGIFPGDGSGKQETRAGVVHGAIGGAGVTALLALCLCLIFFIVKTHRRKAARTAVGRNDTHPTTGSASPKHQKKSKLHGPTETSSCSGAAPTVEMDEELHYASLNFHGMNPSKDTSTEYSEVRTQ
binder,measurement,setting,value
B1,half-life of endocytosis,[1],174 s
same,binding result,Siglec-5 on U937 cells,no binding
same,binding result,Siglec-9 on U937 cells,no binding
same,binding result,CD33 on U937 cells,no binding
